Assay results: publication PMC7846560, “A promiscuous ancestral enzyme´s structure unveils protein variable regions of the highly diverse metallo-β-lactamase family” (Communications Biology, 2021)

Substrate: O=[N+]([O-])c1ccc(OP(=O)(O)Oc2ccc([N+](=O)[O-])cc2)cc1
Assay: purified protein
Assay type: biochemical, Ignicoccus hospitalis
Settings: pH 8, 90 °C, Ni2+ is the required metal (optimal metal conditions)

B1: Igni18 (Ignicoccus hospitalis KIN4/I) (protein)
chain: MTTVKLTYFGHSAFHVEVDGVGIAIDPWITNPLSKTTLEDYLKNFKTDLVVITHAHEDHIGDALEIMRRTGAKFFSIHEIYVDLTQKGFQGIGANIGGPAKLDDVAPGLGIALTPATHSSYDKGVPTGAIIFKDGKALVYHAGDTGLFAEMQFIGELYAPKVALLPIGGHYTMDIEQALLATKLLRPEVVVPMHYNTFPPIRADPNEFKQKVESAGLAKVRVMEPGETVTFEF
notes: homotrimer; 233 protein residues in the structure
Q: For B1, which Km is on record?
A: Its Km is 2.5 µM.

Q: What about the kcat of the same protein?
A: The kcat was 6.72e-05 s⁻¹.
